Measured values from patent publication US20170333548A1.

Columns and labels:
Assay in all cases: cell-based or functional assay
[1] = molecular target: wild-type DENV4 E glycoprotein (Parent_WT_DENV4), on virus particles (Dengue virus 4) (UniProt P09866)
[2] = molecular target: DV4-EDIII-DV2 chimeric E glycoprotein (DENV4 backbone with DENV2 envelope domain III), on virus particles (Dengue virus 4/2)
[3] = molecular target: wild-type DENV2 E glycoprotein (Parent_WT_DENV2), on virus particles (Dengue virus 2) (UniProt P07564)

human monoclonal antibody 2D22
FRNT50 (Vero-81 focus reduction neutralization test) [1]: > 5 ng/µL
FRNT50 (Vero-81 focus reduction neutralization test) [2]: 0.01 ng/µL
FRNT50 (Vero-81 focus reduction neutralization test) [3]: 0.1 ng/µL
